Data taken from paper PMC5862502, “Coordinated regulation of Arabidopsis microRNA biogenesis and red light signaling through Dicer-like 1 and phytochrome-interacting factor 4”.

Target: T1, PIF4-MBP (phytochrome-interacting factor 4) (Arabidopsis thaliana, UniProt Q8W2F3 1-430)
T1 sequence: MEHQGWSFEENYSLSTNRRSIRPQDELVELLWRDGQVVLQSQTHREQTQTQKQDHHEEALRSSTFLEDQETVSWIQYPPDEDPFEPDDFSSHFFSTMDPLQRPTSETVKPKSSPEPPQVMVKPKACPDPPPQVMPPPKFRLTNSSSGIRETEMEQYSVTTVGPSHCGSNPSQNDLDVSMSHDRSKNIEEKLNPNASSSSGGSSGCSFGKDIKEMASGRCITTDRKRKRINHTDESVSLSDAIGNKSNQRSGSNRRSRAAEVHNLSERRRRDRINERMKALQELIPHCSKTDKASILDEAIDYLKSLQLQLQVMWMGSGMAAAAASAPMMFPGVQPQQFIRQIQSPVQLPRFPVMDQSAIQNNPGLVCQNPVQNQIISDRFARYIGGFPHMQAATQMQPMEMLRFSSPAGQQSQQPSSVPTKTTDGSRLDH
Test: EMSA; 1 nM labeled probe; decreasing amounts of PIF4; unlabeled same-sequence competitor in lane 8; LightShift Chemiluminescent EMSA kit buffer (composition not given), 20 ul, 30 min on ice, 1x TBE polyacrylamide gel
Details: protein: recombinant; tags: MBP; chain copies: 2; label: 3' biotin on sense strand; blunt

B1: miR160b promoter G-box fragment (dsDNA)
DNA 1: AGACACGTGTAGAAATCTTCTAAACCC
DNA 2: GGGTTTAGAAGATTTCTACACGTGTCT
B1: binds.
